Experimental data taken from patent US20240383992A1 (ORICELL THERAPEUTICS, published 2024).

T1: BCMA expressed on MM1s cells (UniProt Q02223 1-184, limits assumed)
T1 sequence (looked up): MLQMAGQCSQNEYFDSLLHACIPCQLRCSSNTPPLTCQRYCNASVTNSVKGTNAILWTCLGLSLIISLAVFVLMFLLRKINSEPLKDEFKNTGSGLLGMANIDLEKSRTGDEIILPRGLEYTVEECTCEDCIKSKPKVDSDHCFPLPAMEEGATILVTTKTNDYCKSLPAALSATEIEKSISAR


Target: T1, BCMA expressed on MM1s cells
Test: cell-based or functional assay

| Binder | killing toxicity against the target cell at effector-to-target ratio 1:1 [%] | killing toxicity against the target cell at effector-to-target ratio 3:1 [%] |
| --- | --- | --- |
| hBCMA-17 CAR (other) EIVLTQSPATLSLSPGERATLSCRASESVSVSGIHLLHWYQQKPGQAPRLLIYLGRNRAAGIPARFSGSGSGTDFTLTISSLEPEDAAIYYCLQSRRFPRHFGQGTKLEIKGSTSGSGKPGSGEGSTKGQVQLVQSGAEVKKPGASVKVSCKASGYTFADYTINWVRQATGQGLEWMGWINTETREPTYAYDFRSRFTFTLNTSISTAYLELSSLRSEDTAVYYCARDIRYVMDYWGQGTLVTVSSTTTPAPRPPTPAPTIASQPLSLRPEACRPAAGGAVHTRGLDFACDIYIWAPLAGTCGVLLLSLVITLYCKRGRKKLLYIFKQPFMRPVQTTQEEDGCSCRFPEEEEGGCELRVKFSRSADAPAYQQGQNQLYNELNLGRREEYDVLDKRRGRDPEMGGKPRRKNPQEGLYNELQKDKMAEAYSEIGMKGERRRGKGHDGLYQGLSTATKDTYDALHMQALPPR | > 20 | > 70 |
| hBCMA-20 CAR (other) EIVLTQSPATLSLSPGERATLSCRASESVSVPGISFIHWYQQKPGQAPRLLIYLGRNRAAGIPARFSGSGSGTDFTLTISSLEPEDAAIYYCLQSRRFPRHFGQGTKLEIKGSTSGSGKPGSGEGSTKGQVQLVQSGAEVKKPGASVKVSCKASGYTFADYTINWVRQATGQGLEWMGWINTETREPTYAYDFRSRFTFTLNTSISTAYLELSSLRSEDTAVYYCARDIRYVMDYWGQGTLVTVSSTTTPAPRPPTPAPTIASQPLSLRPEACRPAAGGAVHTRGLDFACDIYIWAPLAGTCGVLLLSLVITLYCKRGRKKLLYIFKQPFMRPVQTTQEEDGCSCRFPEEEEGGCELRVKFSRSADAPAYQQGQNQLYNELNLGRREEYDVLDKRRGRDPEMGGKPRRKNPQEGLYNELQKDKMAEAYSEIGMKGERRRGKGHDGLYQGLSTATKDTYDALHMQALPPR | > 20 | > 70 |
| hBCMA-23 CAR (other) EIVLTQSPATLSLSPGERATLSCRASESVSVPGISFIHWYQQKPGQAPRLLIYLGSNRPSGIPARFSGSGSGTDFTLTISSLEPEDAAIYYCLQSRRFPRHFGQGTKLEIKGSTSGSGKPGSGEGSTKGQVQLVQSGAEVKKPGASVKVSCKASGYTFADYTINWVRQATGQGLEWMGWINTETREPTYAYDFRSRFTFTLNTSISTAYLELSSLRSEDTAVYYCARDIRYVMDYWGQGTLVTVSSTTTPAPRPPTPAPTIASQPLSLRPEACRPAAGGAVHTRGLDFACDIYIWAPLAGTCGVLLLSLVITLYCKRGRKKLLYIFKQPFMRPVQTTQEEDGCSCRFPEEEEGGCELRVKFSRSADAPAYQQGQNQLYNELNLGRREEYDVLDKRRGRDPEMGGKPRRKNPQEGLYNELQKDKMAEAYSEIGMKGERRRGKGHDGLYQGLSTATKDTYDALHMQALPPR | > 20 | > 70 |
| hBCMA-19 CAR (other) EIVLTQSPATLSLSPGERATLSCRASESVSVPGISFIHWYQQKPGQAPRLLIYLGRNRAAGIPARFSGSGSGTDFTLTISSLEPEDAAIYYCLQSRRFPRHFGQGTKLEIKGSTSGSGKPGSGEGSTKGQVQLVQSGAEVKKPGASVKVSCKASGYTFADYTINWVRQATGQGLEWMGWINTETREPAYAYDFRGRFTFTLNTSISTAYLELSSLRSEDTAVYYCARDIRYVMDYWGQGTLVTVSSTTTPAPRPPTPAPTIASQPLSLRPEACRPAAGGAVHTRGLDFACDIYIWAPLAGTCGVLLLSLVITLYCKRGRKKLLYIFKQPFMRPVQTTQEEDGCSCRFPEEEEGGCELRVKFSRSADAPAYQQGQNQLYNELNLGRREEYDVLDKRRGRDPEMGGKPRRKNPQEGLYNELQKDKMAEAYSEIGMKGERRRGKGHDGLYQGLSTATKDTYDALHMQALPPR | > 20 | > 70 |
| hBCMA-22 CAR (other) EIVLTQSPATLSLSPGERATLSCRASESVSVPGISFIHWYQQKPGQAPRLLIYLGSNRPSGIPARFSGSGSGTDFTLTISSLEPEDAAIYYCLQSRRFPRHFGQGTKLEIKGSTSGSGKPGSGEGSTKGQVQLVQSGAEVKKPGASVKVSCKASGYTFADYTINWVRQATGQGLEWMGWINTETREPAYAYDFRGRFTFTLNTSISTAYLELSSLRSEDTAVYYCARDIRYVMDYWGQGTLVTVSSTTTPAPRPPTPAPTIASQPLSLRPEACRPAAGGAVHTRGLDFACDIYIWAPLAGTCGVLLLSLVITLYCKRGRKKLLYIFKQPFMRPVQTTQEEDGCSCRFPEEEEGGCELRVKFSRSADAPAYQQGQNQLYNELNLGRREEYDVLDKRRGRDPEMGGKPRRKNPQEGLYNELQKDKMAEAYSEIGMKGERRRGKGHDGLYQGLSTATKDTYDALHMQALPPR | > 20 | > 70 |
